In the RNAGym collection of RNA variant scans (doi:10.1093/molbev/msab373):

B1: Azoarcus group I ribozyme (parent)
chain: GUGCCUUGCGCCGGGAAACCACGCAAGGGAUGGUGUCAAAUUCGGCGAAACCUAAGCGCCCGCCCGGGCGUAUGGCAACGCCGAGCCAAGCUUCGGCGCCUGCGCCGAUGAAGGUGUAGAGACUAGACGGCACCCACCUAAGGCAAACGCUAUGGUGAAGGCAUAGUCCAGGGAGUGGCGAAAGUCACACAAACCGG

Variants of: B1
Assay: reverse-splicing fitness (ratio to wild type); higher = more active; in vitro selection; Mg2+ level not given
In short: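 An in vitro group I ribozyme library with randomized positions was T7-transcribed and gel-purified. In triplicate, 10 pmol RNA in EPPS pH 7.5 was reacted with 50 pmoles of a 30-nt RNA substrate for 1 h at 37 °C across several added MgCl2 levels (1–48 mM), then stopped with EDTA. Products were reverse transcribed from a substrate-complementary primer, PCR-amplified and sequenced (HiSeq 4000). Fitness is a variant's read proportion after selection over that before, normalised to wild type.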

Variant	reverse-splicing fitness
C82G A111C A120C C150U C169G	0.00825
C82G A111C A120C C150U C169U	0.0139
C82G A111C A120C C150U C169A	0.0099
C82G A111C A120C U176A	0.018
C82G A111C A120C U176G	0.00944
C82G A111C A120C U176C	0.0268
C82G A111C A120G A145C C150A C169A U176A	0.0124
C82G A111C A120G A145C C150A C169A U176C	0.00779
C82G A111C A120G A145C C150A C169A U176G	0.00562
C82G A111C A120G A145U C169A U176G	0.00439
C82G A111C A120G A145U C169A U176A	0.0115
C82G A111C A120G A145U C169A U176C	0.00997
C82G A111C A120G A145G C150A C169A U176C	0.0198
C82G A111C A120G A145G C150A C169A U176G	0.00723
C82G A111C A120G A145G C150A C169A U176A	0.0181
C82G A111C A120C C150G C169G U176C	0.00766
C82G A111C A120C C150G C169G U176G	0.00663
C82G A111C A120C C150G C169G U176A	0.00891
C82G A111C A120G A145G C169G U176A	0.0188
C82G A111C A120G A145G C169G U176G	0.00514
C82G A111C A120G A145G C169G U176C	0.0288

Variant	reverse-splicing fitness
C82G A111C A120G A145G C150U U176A	0.0105
C82G A111C A120G A145G C150U U176G	0.00692
C82G A111C A120G A145G C150U U176C	0.0183
C82G A111C A120C A145U C169A U176C	0.0142
C82G A111C A120C A145U C169A U176A	0.0143
C82G A111C A120C A145U C169A U176G	0.0056
C82G A111C A120G A145U C150A U176A	0.0121
C82G A111C A120G A145U C150A U176G	0.00582
C82G A111C A120G A145U C150A U176C	0.0172
C82G A111C A120G C150A C169A U176C	0.0214
C82G A111C A120G C150A C169A U176G	0.00716
C82G A111C A120G C150A C169A U176A	0.0179
C82G A111C A120G A145U C150U U176G	0.00613
C82G A111C A120G A145U C150U U176A	0.0115
C82G A111C A120G A145U C150U U176C	0.0179
C82G A111C A120C A145U C150U C169A U176G	0.00748
C82G A111C A120C A145U C150U C169A U176C	0.0124
C82G A111C A120C A145U C150U C169A U176A	0.0138
C82G A111C A120C C150G C169U U176G	0.00751
C82G A111C A120C C150G C169U U176C	0.0107
C82G A111C A120C C150G C169U U176A	0.00786

Variant	reverse-splicing fitness
C82G A111C A120C A145U C169U	0.0143
C82G A111C A120C A145U C169G	0.00877
C82G A111C A120C A145U C169A	0.00731
C82G A111C A120G A145U C150A C169U U176A	0.0169
C82G A111C A120G A145U C150A C169U U176G	0.00547
C82G A111C A120G A145U C150A C169U U176C	0.0124
C82G A111C A120G C150G C169U U176C	0.0132
C82G A111C A120G C150G C169U U176G	0.00589
C82G A111C A120G C150G C169U U176A	0.0081
C82G A111C A120C C150U C169A U176G	0.00909
C82G A111C A120C C150U C169A U176C	0.0129
C82G A111C A120C C150U C169A U176A	0.0126
C82G A111C A120C C150A C169A	0.0108
C82G A111C A120C C150A C169U	0.0123
C82G A111C A120C C150A C169G	0.00905
C82G A111C A120G A145G U176G	0.00675
C82G A111C A120G A145G U176A	0.017
C82G A111C A120G A145G U176C	0.0204
C82G A111C A120G C150U C169U	0.00939
C82G A111C A120G C150U C169G	0.0113
C82G A111C A120G C150U C169A	0.0111

Variant	reverse-splicing fitness
C82G A111C A120C A145U U176C	0.0239
C82G A111C A120C A145U U176G	0.00884
C82G A111C A120C A145U U176A	0.0196
C82G A111C A120G A145G C169A U176C	0.0271
C82G A111C A120G A145G C169A U176G	0.00447
C82G A111C A120G A145G C169A U176A	0.0209
C82G A111C A120C A145U C150U C169U U176G	0.00674
C82G A111C A120C A145U C150U C169U U176C	0.0153
C82G A111C A120C A145U C150U C169U U176A	0.015
C82G A111C A120G A145U C150G U176A	0.00814
C82G A111C A120G A145U C150G U176C	0.015
C82G A111C A120G A145U C150G U176G	0.00375
C82G A111C A120C A145U C169U U176C	0.0123
C82G A111C A120C A145U C169U U176A	0.0126
C82G A111C A120C A145U C169U U176G	0.00641
C82G A111C A120G A145G C150A U176A	0.00974
C82G A111C A120G A145G C150A U176C	0.0185
C82G A111C A120G A145G C150A U176G	0.007
C82G A111C A120G C150G C169A U176A	0.00915
C82G A111C A120G C150G C169A U176G	0.00686
C82G A111C A120G C150G C169A U176C	0.0102
